Test results from US20210395725A1.
Residue numbers refer to the chain shown, from its start.

How the values were obtained:
[1] = target: human placental laminin (human); assay: HEK293-6E cell display flow cytometry; 500 nM laminin-biotin + streptavidin-Alexa Fluor 647; secondary only 4.17
[2] = target: human placental laminin (human); assay: HEK293-6E cell display flow cytometry; 500 nM laminin-biotin + streptavidin-Alexa Fluor 647; secondary only 6.09
[3] = target: human placental laminin (human); assay: HEK293-6E cell display flow cytometry; 500 nM laminin-biotin + streptavidin-Alexa Fluor 647; secondary only 5.57
[4] = target: human placental laminin (human); assay: HEK293-6E cell display flow cytometry; 500 nM laminin-biotin + streptavidin-Alexa Fluor 647; secondary only 3.28
[5] = target: human placental laminin (human); assay: HEK293-6E cell display flow cytometry; 500 nM laminin-biotin + streptavidin-Alexa Fluor 647; secondary only 1.77
[6] = target: human placental laminin (human); assay: bead flow cytometry; EVs on CD9+ capture beads, 5 µg/mL biotinylated laminin + neutravidin-PE; with competition of 3-fold molar excess of unlabelled laminin (15 µg/mL)
[7] = target: human placental laminin (human); assay: bead flow cytometry; EVs on CD9+ capture beads, 5 µg/mL biotinylated laminin + neutravidin-PE; without competition
[8] = target: BSA (bovine) (UniProt P02769); assay: ELISA; BSA as control antigen, neat eluted His-tagged protein, anti-pentaHis-HRP
Chain of BSA (bovine) (P02769 25-607 limits assumed): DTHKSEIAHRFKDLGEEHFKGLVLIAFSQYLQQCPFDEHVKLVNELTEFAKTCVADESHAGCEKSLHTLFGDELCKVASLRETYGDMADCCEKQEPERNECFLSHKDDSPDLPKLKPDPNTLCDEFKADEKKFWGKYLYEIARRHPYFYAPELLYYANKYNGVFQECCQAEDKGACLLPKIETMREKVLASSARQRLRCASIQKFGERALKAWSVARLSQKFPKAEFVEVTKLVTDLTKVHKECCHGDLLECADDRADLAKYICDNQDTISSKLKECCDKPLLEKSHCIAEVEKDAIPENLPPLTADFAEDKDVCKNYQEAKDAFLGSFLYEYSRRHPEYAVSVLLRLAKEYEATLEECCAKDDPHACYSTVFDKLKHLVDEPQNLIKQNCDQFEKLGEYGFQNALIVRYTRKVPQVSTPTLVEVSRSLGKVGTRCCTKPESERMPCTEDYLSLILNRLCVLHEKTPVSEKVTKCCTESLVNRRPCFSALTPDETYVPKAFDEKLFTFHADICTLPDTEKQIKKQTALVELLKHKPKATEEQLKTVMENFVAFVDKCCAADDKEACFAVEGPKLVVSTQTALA

[9] = target: human placental laminin (human); assay: HEK293-6E cell display flow cytometry; 500 nM laminin-biotin + streptavidin-Alexa Fluor 647; secondary only 4.11

B1: laminin-binding CD81 LEL mutant 81_L13 (designed binder)
chain: FVNKDQIAKDVKQFYDQCLSWACNRKYEPNAKACVKTFHETLDCCGSSTKANYTHCVLEMNLCPSGSNIISNLFKEDCHQKIDDLFSGK
Question: For B1, which % antigen-positive cells [1] is on record?
Answer: The % antigen-positive cells was 30.8%.

B2: laminin-binding CD81 LEL mutant L2B_LU1 (designed binder)
chain: FVNKDQIAKDVKQFYDQALVFCCFGGHANNACAVVKTFHETLDCCGSSTHPYKTKCVLQRNLCPSGSNIISNLFKEDCHQKIDDLFSGK
Question: B2 was tested. Which % antigen-positive cells [2] did it give?
Answer: Its % antigen-positive cells is 54.2%.

B3: laminin-binding CD81 LEL mutant L2A_LU1_1 (designed binder)
chain: FVNKDQIAKDVKQFYDQALMICCHRHYANNACAVVKTFHETLDCCGSSTPSSTTPCVLQNNLCPSGSNIISNLFKEDCHQKIDDLFSGK
Question: Which % antigen-positive cells [3] does the source give for B3 here?
Answer: Its % antigen-positive cells is 37.9%.

B4: laminin-binding CD81 LEL mutant 81_L21 (designed binder)
chain: B3 chain with M20F, H24F, H26R, P50R, S51N, S52N, T53E, P55A, Q59A, N60K
Question: With B4 as the binder, how does the % antigen-positive cells [4] read?
Answer: The % antigen-positive cells was 37.1%.

B5: laminin-binding CD81 LEL mutant L2B_LU1_1 (designed binder)
chain: FVNKDQIAKDVKQFYDQALWKCCNLSQANNACAVVKTFHETLDCCGSSTYLCATYCVLWPNLCPSGSNIISNLFKEDCHQKIDDLFSGK
Question: With B5 as the binder, how does the % antigen-positive cells [5] read?
Answer: The % antigen-positive cells was 20.1%.

B6: wild-type CD81-eGFP on recombinant EVs (protein, not shown: large carriers)
chain: MGVEGCTKCIKYLLFVFNFVFWLAGGVILGVALWLRHDPQTTNLLYLELGDKAPNTFYVGIYILIAVGAVMMFVGFLGCYGAIQESQCLLGTFFTCLVILFACEVAAGIWGFVNKDQIAKDVKQFYDQALQQAVVDDDANNAKAVVKTFHETLDCCGSSTLTALTTSVLKNNLCPSGSNIISNLFKEDCHQKIDDLFSGKLYLIGIAAIVVAVIMIFEMILSMVLCCGIRNSSVY
Question: B6 was tested. Which Mean 561 [6] did it give?
Answer: Its Mean 561 is 23900.

Question: And the Mean 561 - BG [6]?
Answer: Its Mean 561 - BG is 18700.

Question: What about the ratio 488/561 [6] of the same binder?
Answer: The ratio 488/561 was 0.248.

Question: What about the Mean 561 [7] of the same binder?
Answer: The Mean 561 was 20200.

Question: What about the Mean 561 - BG [7] of the same binder?
Answer: Its Mean 561 - BG is 14800.

Question: What about the ratio 488/561 [7] of the same binder?
Answer: The ratio 488/561 was 0.21.

B7: laminin-binding CD81 LEL mutant L3A_LU1 (designed binder)
chain: FVNKDQIAKDVKQFYDQCLLWACSKRYKYNAKACVKTFHETLDCCGSSTMGNLTECVLIENLCPSGSNIISNLFKEDCHQKIDDLFSGK
Question: Which A450/620 (average) [8] does the source give for B7 here?
Answer: Its A450/620 (average) is 0.016.

B8: laminin-binding CD81 LEL mutant 81_L17 (designed binder)
chain: FVNKDQIAKDVKQFYDQCLRHACSGLSGRNAKACVKTFHETLDCCGSSTIKHKTLCVLIKNLCPSGSNIISNLFKEDCHQKIDDLFSGK
Question: Which % antigen-positive cells [9] does the source give for B8 here?
Answer: Its % antigen-positive cells is 28.1%.

B9: laminin-binding CD81 LEL mutant L3B_LU1_2 (designed binder)
chain: FVNKDQIAKDVKQFYDQCLKYACKQGDWENAKACVKTFHETLDCCGSSTVANMTRCVLPANLCPSGSNIISNLFKEDCHQKIDDLFSGK
Question: How did the A450/620 (average) [8] turn out when B9 was run?
Answer: The A450/620 (average) was 0.021.

B10: laminin-binding CD81 LEL mutant L2A_LU1 (designed binder)
chain: FVNKDQIAKDVKQFYDQALRECCNTFDANNACAVVKTFHETLDCCGSSTTHSSTGCVLFFNLCPSGSNIISNLFKEDCHQKIDDLFSGK
Question: With B10 as the binder, how does the A450/620 (average) [8] read?
Answer: The A450/620 (average) was 0.045.
